Reference: the supplement of paper PMC7125110
± gives the standard error. Fewer inactive variants are shown than the library holds.

B1: glmS ribozyme (parent)
chain: AUAAAAGCGCCAGAACUACAGAAAUGUAGUUGACGAGGAGGAGGUUUAUCGAAUUUUCGGCGGAUGCCUCCAAA

Key:
Details in all cases: with glucosamine-6-phosphate
glucosamine-6-phosphate [1] = variants of: B1; experiment: self-cleavage kobs at 40 uM GlcN6P; higher = faster cleavage; RNA array
In short: (§1)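 Barcoded glmS ribozyme variants on sequenced MiSeq chips were transcribed in situ by E. coli RNA polymerase and tracked through a hybridised Cy3 probe at 37 °C. Glucosamine-6-phosphate (40 μM to 10 mM) in HEPES/KCl/Mg(OAc)2 buffer was flowed in, and tiles were imaged over ~14 h. Signals were normalised to baseline and to non-cleaving reference variants; per-tile medians were fit to one- or two-exponential decays to give kobs. kcat and KM came from weighted Michaelis–Menten fits across concentrations.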

glucosamine-6-phosphate [2] = variants of: B1; experiment: self-cleavage kobs at 10000 uM GlcN6P; higher = faster cleavage; RNA array
In short: as §1

glucosamine-6-phosphate [3] = variants of: B1; experiment: self-cleavage kobs at 640 uM GlcN6P; higher = faster cleavage; RNA array
In short: as §1

glucosamine-6-phosphate [4] = variants of: B1; experiment: self-cleavage kobs at 2500 uM GlcN6P; higher = faster cleavage; RNA array
In short: as §1

glucosamine-6-phosphate [5] = variants of: B1; experiment: self-cleavage kobs at 160 uM GlcN6P; higher = faster cleavage; RNA array
In short: as §1

Variant	self-cleavage kobs at 40 uM GlcN6P (glucosamine-6-phosphate [1]) [s⁻¹]	self-cleavage kobs at 10000 uM GlcN6P (glucosamine-6-phosphate [2]) [s⁻¹]	self-cleavage kobs at 640 uM GlcN6P (glucosamine-6-phosphate [3]) [s⁻¹]	self-cleavage kobs at 2500 uM GlcN6P (glucosamine-6-phosphate [4]) [s⁻¹]	self-cleavage kobs at 160 uM GlcN6P (glucosamine-6-phosphate [5]) [s⁻¹]
G13C C16U C67A	< 1e-05	3.41e-05 ± 1.2e-05	–	–	–
A14G G29U A36G	< 1e-05	–	–	–	–
A12U U57C G59C	< 1e-05	–	< 1e-05	< 1e-05	–
G13U G44U G51C	< 1e-05	–	–	–	–
G13C A48C	< 1e-05	< 1e-05	–	< 1e-05	< 1e-05
G13C A15U C16G A39C	< 1e-05	< 1e-05	–	–	–
A12G G37C U46C A53G C68U	< 1e-05	< 1e-05	–	–	–
A14G U30A A39G A53C	9.97e-05 ± 2.6e-05	0.00799 ± 0.0023	–	–	–
G13A A15C G38U A48G A52C	< 1e-05	< 1e-05	–	–	–
A14U G29U G44U U56A	< 1e-05	–	–	–	–
A15G G32C G41A G60A C71U	< 1e-05	–	–	–	–
A12G G13C G32U G40A A64C	< 1e-05	–	–	–	–
G13A C50A U69G	4.48e-05 ± 2.2e-05	–	–	–	–
A15G C68A C70U	< 1e-05	–	–	–	–
G13A A42G A48U	< 1e-05	< 1e-05	–	–	–
A14U A15G A53G	0.000126 ± 2.3e-05	0.0102 ± 0.0019	–	–	–
A14U G35U U69G	0.000295 ± 0.00012	6.56e-05 ± 1.9e-05	–	–	–
G13C G29U G32A U54G U65C C68G U69G	0.00014 ± 4.1e-05	0.000151 ± 3.1e-05	0.000623 ± 0.00016	9.24e-05 ± 2.8e-05	0.000198 ± 5.6e-05
A15C G63U	< 1e-05	< 1e-05	< 1e-05	–	–
A14G C34A G38U	< 1e-05	–	–	–	–

Variant	self-cleavage kobs at 40 uM GlcN6P (glucosamine-6-phosphate [1]) [s⁻¹]	self-cleavage kobs at 10000 uM GlcN6P (glucosamine-6-phosphate [2]) [s⁻¹]	self-cleavage kobs at 640 uM GlcN6P (glucosamine-6-phosphate [3]) [s⁻¹]	self-cleavage kobs at 2500 uM GlcN6P (glucosamine-6-phosphate [4]) [s⁻¹]	self-cleavage kobs at 160 uM GlcN6P (glucosamine-6-phosphate [5]) [s⁻¹]
A14G G44U U49C	< 1e-05	–	–	–	–
A12U G32A A33U	< 1e-05	–	< 1e-05	–	–
G13C U57C	< 1e-05	–	< 1e-05	–	< 1e-05
A15C G29C U30C U31G G38C G60A U69G	< 1e-05	–	–	–	–
A15C G32C A64U C67A	< 1e-05	–	–	–	–
A14G A33C C70U	< 1e-05	< 1e-05	< 1e-05	< 1e-05	< 1e-05
A15G G29U U54C	2.83e-05 ± 1.3e-05	–	0.000321 ± 0.0001	0.000796 ± 0.00016	–
A15G C34A	< 1e-05	–	< 1e-05	–	< 1e-05
G13U C34A U49A U65C	< 1e-05	< 1e-05	–	–	–
A15C A39G G40A G59C	< 1e-05	–	–	–	–
A15G C34A G62U	< 1e-05	< 1e-05	–	–	–
A14G G38A	< 1e-05	–	–	–	–
G13A A15C A33U G35A C58A	< 1e-05	–	–	–	–
G13A U47C C58U C71U	< 1e-05	6.08e-05 ± 1.3e-05	–	–	–
G13U A48G U65C U69G	< 1e-05	–	–	–	–
A14U U30C G44A U46G	< 1e-05	< 1e-05	< 1e-05	< 1e-05	–
G13U U31C C50G G63U	< 1e-05	–	–	–	–
A15G A64U C68U	< 1e-05	–	–	–	–
A14G C16A U17C A18U C19A A20C	0.000161 ± 4.5e-05	0.00427 ± 0.00081	–	–	–
G13A A48U	< 1e-05	–	< 1e-05	–	< 1e-05

Variant	self-cleavage kobs at 40 uM GlcN6P (glucosamine-6-phosphate [1]) [s⁻¹]	self-cleavage kobs at 10000 uM GlcN6P (glucosamine-6-phosphate [2]) [s⁻¹]	self-cleavage kobs at 640 uM GlcN6P (glucosamine-6-phosphate [3]) [s⁻¹]	self-cleavage kobs at 2500 uM GlcN6P (glucosamine-6-phosphate [4]) [s⁻¹]	self-cleavage kobs at 160 uM GlcN6P (glucosamine-6-phosphate [5]) [s⁻¹]
G13C G40U	< 1e-05	–	< 1e-05	–	< 1e-05
G13U G29A G44U U55G	< 1e-05	< 1e-05	–	–	–
A14G G59C	< 1e-05	–	< 1e-05	–	–
A14U U54A G59C	< 1e-05	< 1e-05	–	–	–
A15C G32U A33C	< 1e-05	< 1e-05	< 1e-05	< 1e-05	< 1e-05
A14C G59C	< 1e-05	< 1e-05	< 1e-05	–	< 1e-05
A12U A36G A52U C71G	< 1e-05	< 1e-05	–	< 1e-05	–
A15G G41U	0.000204 ± 2.3e-05	–	0.000507 ± 8.7e-05	0.00155 ± 0.00029	0.000282 ± 4.5e-05
A14U G41U C68A C70U	< 1e-05	–	–	–	–
A12U A42G U47A C68U	0.000117 ± 4.6e-05	0.00634 ± 0.0021	–	–	–
A12G G44C C67G	< 1e-05	0.000225 ± 4.3e-05	–	–	–
A14U G38U G63U	< 1e-05	< 1e-05	–	–	–
A12U A52C C58U C71U	< 1e-05	–	–	–	–
A15C A36G	< 1e-05	< 1e-05	< 1e-05	< 1e-05	< 1e-05
A12G A53U C58U	< 1e-05	–	–	–	–
G13A G41C	< 1e-05	–	< 1e-05	–	–
A15G G37A A39C C61U U69G	< 1e-05	–	–	–	–
A14C U31G U47G	0.00012 ± 1.8e-05	0.00313 ± 0.00068	–	–	–
G13U C16U C70U	5.86e-05 ± 1.3e-05	0.00165 ± 0.00029	–	–	–
